Data from the supplement of paper PMC9112550, “Optimization of the antimicrobial peptide Bac7 by deep mutational scanning” (BMC Biology, 2022).

test system: Escherichia coli TOP10; assay: shrunken log2 fold change of peptide-encoding DNA abundance (4.5 h post-induction vs induction); higher = less antimicrobial activity (less host growth inhibition); conditions: time post-induction: 4.5 h; library: site-saturation at positions 5, 18, 19, 20
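Also: peptides expressed intracellularly from a pBAD plasmid library in pooled LB shake-flask culture, induced with 0.3% L-arabinose, DNA abundance read by NGS, three biological replicates, DESeq2 with apeglm shrinkage.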

Row | Sequence | shrunken log2 fold change
1 | RRIRVRPPRLPRPRPRPGCYPRP | -0.112
2 | RRIRCRPPRLPRPRPRPDQFPRP | 0.07
3 | RRIRVRPPRLPRPRPRPYHEPRP | -0.159
4 | RRIRPRPPRLPRPRPRPGTRPRP | 0.134
5 | RRIRKRPPRLPRPRPRPVVGPRP | 0.686
6 | RRIRERPPRLPRPRPRPRKQPRP | 0.00709
7 | RRIRYRPPRLPRPRPRPPLEPRP | 0.119
8 | RRIRFRPPRLPRPRPRPHNDPRP | -0.81
9 | RRIRQRPPRLPRPRPRPQATPRP | -0.00963
10 | RRIRLRPPRLPRPRPRPANDPRP | 0.0379
11 | RRIRKRPPRLPRPRPRPWFWPRP | 0.442
12 | RRIRWRPPRLPRPRPRPLMYPRP | -0.0465
13 | RRIRARPPRLPRPRPRPWMSPRP | 0.0814
14 | RRIRGRPPRLPRPRPRPFLVPRP | -0.0616
15 | RRIRQRPPRLPRPRPRPWLAPRP | 0.136
16 | RRIRYRPPRLPRPRPRPIRYPRP | -0.00146
17 | RRIRCRPPRLPRPRPRPAIRPRP | -0.0579
18 | RRIRCRPPRLPRPRPRPDEHPRP | -0.417
19 | RRIRCRPPRLPRPRPRPVIWPRP | 0.0816
20 | RRIRNRPPRLPRPRPRPSNIPRP | -0.28
21 | RRIRERPPRLPRPRPRPHHTPRP | -0.268
22 | RRIRHRPPRLPRPRPRPIIHPRP | 0.142
23 | RRIRHRPPRLPRPRPRPYINPRP | -0.862
24 | RRIRNRPPRLPRPRPRPMMQPRP | -0.208
25 | RRIRVRPPRLPRPRPRPRLAPRP | 0.684

Row | Sequence | shrunken log2 fold change
26 | RRIRFRPPRLPRPRPRPWMRPRP | 0.495
27 | RRIRWRPPRLPRPRPRPDTHPRP | 0.219
28 | RRIRLRPPRLPRPRPRPFFNPRP | -0.359
29 | RRIRIRPPRLPRPRPRPAIVPRP | -0.135
30 | RRIRFRPPRLPRPRPRPHQPPRP | 0.575
31 | RRIRYRPPRLPRPRPRPNHHPRP | -1.19
32 | RRIRFRPPRLPRPRPRPKMYPRP | -0.815
33 | RRIRSRPPRLPRPRPRPIFVPRP | 0.0197
34 | RRIRGRPPRLPRPRPRPMQIPRP | 0.406
35 | RRIRPRPPRLPRPRPRPTDNPRP | -0.134
36 | RRIRPRPPRLPRPRPRPLWQPRP | 0.0105
37 | RRIRGRPPRLPRPRPRPEYQPRP | 0.416
38 | RRIRERPPRLPRPRPRPGGTPRP | -0.215
39 | RRIRERPPRLPRPRPRPFDYPRP | 0.155
40 | RRIRQRPPRLPRPRPRPQRCPRP | 0.0862
41 | RRIRRRPPRLPRPRPRPKAKPRP | 0.0788
42 | RRIRVRPPRLPRPRPRPVSVPRP | 0.0195
43 | RRIRVRPPRLPRPRPRPCYDPRP | 0.0557
44 | RRIRVRPPRLPRPRPRPPQNPRP | 0.188
45 | RRIRPRPPRLPRPRPRPTTHPRP | 0.0944
46 | RRIRMRPPRLPRPRPRPHYLPRP | 0.106
47 | RRIRWRPPRLPRPRPRPGDPPRP | 1.14
48 | RRIRNRPPRLPRPRPRPGDLPRP | 0.107
49 | RRIRSRPPRLPRPRPRPPMKPRP | 0.194
50 | RRIRHRPPRLPRPRPRPWYQPRP | 0.0124

Row | Sequence | shrunken log2 fold change
51 | RRIRCRPPRLPRPRPRPQTNPRP | -0.374
52 | RRIRWRPPRLPRPRPRPVSLPRP | 0.15
53 | RRIRERPPRLPRPRPRPKGLPRP | 0.0211
54 | RRIRERPPRLPRPRPRPEMLPRP | 0.0972
55 | RRIRERPPRLPRPRPRPAHDPRP | -0.181
56 | RRIRRRPPRLPRPRPRPLYRPRP | -0.121
57 | RRIRQRPPRLPRPRPRPCIYPRP | -0.204
58 | RRIRARPPRLPRPRPRPTAHPRP | 0.485
59 | RRIRCRPPRLPRPRPRPVSLPRP | -0.379
60 | RRIRFRPPRLPRPRPRPWHWPRP | 0.00852
61 | RRIRCRPPRLPRPRPRPCAKPRP | -0.168
62 | RRIRYRPPRLPRPRPRPMLRPRP | -0.256
63 | RRIRYRPPRLPRPRPRPPMHPRP | -0.418
64 | RRIRPRPPRLPRPRPRPAMLPRP | 0.233
65 | RRIRGRPPRLPRPRPRPVAVPRP | 0.912
66 | RRIRQRPPRLPRPRPRPMYGPRP | -0.0233
67 | RRIRERPPRLPRPRPRPEHGPRP | 0.174
68 | RRIRKRPPRLPRPRPRPLMVPRP | 0.0242
69 | RRIRERPPRLPRPRPRPHAFPRP | -0.0188
70 | RRIRFRPPRLPRPRPRPFIQPRP | -0.707
71 | RRIRGRPPRLPRPRPRPRRYPRP | 0.0823
72 | RRIRRRPPRLPRPRPRPLMIPRP | -0.258
73 | RRIRRRPPRLPRPRPRPYCHPRP | -0.792
74 | RRIRPRPPRLPRPRPRPDMLPRP | -0.147
75 | RRIRHRPPRLPRPRPRPNMAPRP | -0.0808
